The results in this text go back to article PMC9319256, “Human Enzyme PADI4 Binds to the Nuclear Carrier Importin α3” (Cells, 2022).

In test [1] the target is human importin α3 (Impα3), intact (human). The test can be described thus: other fluorescence titration; peptide 0-20 µM added to 3 µM Impα3 or ΔImpα3; 20 mM Tris pH 7.5, 5 mM TCEP, 150 mM NaCl, 5% glycerol; 25 °C; fluorescence at 330 nm.
The target in test [2] is ΔImpα3, truncated importin α3 lacking the importin β-binding (IBB) domain (human). The test is described as above.
For test [3], the target named is human importin α3 (Impα3), intact (human). In words: BLI; BLItz; His-tagged Impα3 or ΔImpα3 immobilised on His-tag biosensors at 0.3 µM; peptides 1-7 µM; manufacturer's buffer; 25 °C; pseudo-first-order plots; apparent.
Test [4] addresses ΔImpα3, truncated importin α3 lacking the importin β-binding (IBB) domain (human). Described as above.
Test [5] concerns the target human importin α3 (Impα3), intact (human). The test can be described thus: ITC; PADI4 or peptide (100 µM) in the syringe titrated into importin (10 µM) in the cell; 20 mM Tris pH 7.5, 5 mM TCEP, 150 mM NaCl, 5% glycerol; 25 °C; single-site model.
The target in test [6] is ΔImpα3, truncated importin α3 lacking the importin β-binding (IBB) domain (human). The description is as above.

Sequence of human importin α3 (Impα3), intact (human) (O00629 whole entry, the tested form may be a part): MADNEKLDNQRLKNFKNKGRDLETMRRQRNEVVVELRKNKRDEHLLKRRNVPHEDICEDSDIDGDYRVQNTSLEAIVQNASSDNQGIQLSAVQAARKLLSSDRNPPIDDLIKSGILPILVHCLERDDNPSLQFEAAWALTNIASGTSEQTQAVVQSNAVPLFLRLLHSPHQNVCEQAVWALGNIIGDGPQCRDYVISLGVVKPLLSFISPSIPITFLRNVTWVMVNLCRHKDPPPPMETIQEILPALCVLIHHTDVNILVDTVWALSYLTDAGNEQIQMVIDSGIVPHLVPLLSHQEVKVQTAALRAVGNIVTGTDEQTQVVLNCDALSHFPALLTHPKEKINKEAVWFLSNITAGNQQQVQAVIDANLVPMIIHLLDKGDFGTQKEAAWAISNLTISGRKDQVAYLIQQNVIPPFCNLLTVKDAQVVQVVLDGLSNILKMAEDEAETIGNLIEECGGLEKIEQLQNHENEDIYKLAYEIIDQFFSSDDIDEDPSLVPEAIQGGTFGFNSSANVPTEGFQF

B1: NLS2-PADI4 peptide (peptide)
peptide: Ac-YKLFQEQQNEGHGEALLFEGIKKKKQQKI-NH2
B1 had a Kd in test [1] of 4 µM. In test [2], this molecule gave a Kd of 4 µM. Also, in test [3], the Kd came to 99 µM, the koff was 0.32 s⁻¹ and the kon was 3000 M⁻¹ s⁻¹. For the same molecule, in test [4], the Kd is 12 µM, the koff was 0.23 s⁻¹ and the kon stood at 20000 M⁻¹ s⁻¹. In test [5], this molecule returned a Ka of 43000 M⁻¹, a Kd of 23 µM, a dH of -35.7 kcal/mol and a stoichiometry N of 1.08. Moreover, in test [6], the Ka was found to be 230000 M⁻¹, the Kd turned out to be 4.3 µM, the dH is -11.2 kcal/mol and the stoichiometry N was determined as 1.1.

As a reminder, the koff is a measure of how fast the partners let go of each other. In general, kon refers to the second-order rate constant of association. The stoichiometry N is the number of molecules, sites or subunits per partner or assembly.
